Measurements as given in the nanobody polyreactivity screen of Harvey et al. (2022).

Assay: yeast display, Sf9 membrane polyspecificity reagent, FACS + sequencing; frameworks hold sequencing errors
Outline: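 Nanobodies from a synthetic yeast display library (Saccharomyces cerevisiae BJ5465), induced 36–48 hours with galactose, were stained 1 hour at 4 °C with 10% biotinylated, detergent-solubilized Sf9 membrane reagent, enriched on streptavidin microbeads, then FACS-sorted. Anti-HA (expression) and streptavidin (reagent binding) fluorescence set low and high (top ~1%) gates. Polyreactivity labels come from the gate of origin. Genes were colony-PCR amplified, MiSeq 2 × 250 sequenced and filtered by CDR length.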

Sequence	polyreactivity (PSR sort gate)
QVKLVESGGGLVQAGGSLRLSCAASGRTFGIYAMGWYRQAPGKERELVAAITWSGDSTYYADSVKGRFTISRDNAKNTVYLQINSLKPEDTAVYYCAADYVGVTSVRYDYWGQGTQVTVSS	low polyreactivity
QVQLVESGGGLVQAGGSLRLSCAASGRIFGPYTMGWYRQAPGKERELVARISRRGGSTYYADSVKGRFTISRDNAKNTVYLQMNSLKPEDTAVYYCARSQAVYDGWFAKFGYWGQGTQVTVSS	low polyreactivity
QVQLVESGGGLVQAGGSLRLSCAASGFIFFGYAMGWYRQAPGKERELVAAITSGGSTYYADSVKGRFTISRDNAKNTVYLQMNSLKPEDTAVYYCAAVRWYGSKRYGYWGQGTQVTVSS	high polyreactivity
QDQLVESGGGLVQAGGSLSLSCAASGRIYRYYAMGWSRQAPGKERELVADISSGDSTYYADSVKGRFTMSRDNAKNTVYLQMNSLKPEDTAVYNCNADVYSWVSGKEGDYWGQGTQVTVSS	low polyreactivity
QVQLVESGGGLVQAGGSLRLSCAASGRTFDWNAMGWYRQAPGKERELVAAISGGGGSTYYADSVKGRFTISRDNAKNTVYLQMNSLKPEDTEVYYCATWNYYSYHRYDYWGQGTQVTVSS	high polyreactivity
QVQLVESGGCLVQAGGSLSLSCAASGFTFTYYDMGWYRQAPGKERELVAAITRRGGRTYYADSVKGRFTISRDNAKNTVYLQMNSLKPEDTAVYYCNADEYGGSTGRKGRYNYWGQGTQVTVSS	low polyreactivity
QVQLVESGGGLVQAGGSLRISCAASGSTFVRNAMGWYRQAHGKERELVAAISVDGSSTYDADSVKGRFTISRDNAKNTVYLQMNSLKREDTAVYYCNADWEYRDFYDITYDYWGQGTQVTVSS	low polyreactivity
QVQLVESGGGLVQAGGSLRLSCAASGINFAYNAMGWYRQAPGKERELVATITDSGGSTSYADSVKGRFTISRDNAKNTVYLQMNSLKPEDTAVYYCAVLPVYWYWRNYVYLSGYDYWGQGTQVTVSS	low polyreactivity
QVQLVESGGGLVQAGGSLRLSCAASGSIFYKYMGWSRQAPGKERELVAAITWSGGSTYYADSVKGRFTISRDNAKNTVYLQMNSLKPEDPAVYYCAARDYTRYGYGYWGQGTQVTVSS	high polyreactivity
QVQLVESGGGLVQAGGSLRLSCAASGFIFGYYAMGWYRQAPGKERELVAAISKSGGRTRYADSVKGRFTISRDNAKNTVYLQMNSLKPEDTAVYYCATYDPARSTQGYDYWGQGTQVTVSS	high polyreactivity
QVQLVESGGGLVQAGGSLRVSCAASGSIFSYYAMGWYRQAPGKEREFVAAISWSGGSTYYADSVKGRFTISRDNAKNTVYLQMNSLKPEDTAVYYCAAELSLSWLVPDVPYYYWGQGTQVTVSS	low polyreactivity
QVQLVESGGGLVQAGGSLRLSCAASGFIFYSNPMGWYRQAPGKERELVAAITSGGSTYYADSVKGRFTISRDNAKNTVYLQMNSLKPEETAVYYCAAVVRVYFRGFTSYDYWGQGTQVTVSS	high polyreactivity
QVQLVESGGGLVQAGGSLRLSCAASVSLSGYYAMGWYRTGPGKERELVASIRYTGALTYYADTVKGRFTISRDNAKNTVYLQMNSLKPEDTAGYYCAADVKRDRVWGGDYWGQGTQVTVSS	low polyreactivity
QVQLVESGVGLVQAGGRLRLSCAASGRIFGSNAMGWYRQAPGKERELVAAITRSGGSTYYADSVKGRFTISRDNAKNTVYLQMNSLKPEDTAVYYCAAVRTQPKYDYCGQGTQVTVSS	high polyreactivity
QVQLVESGGGLVQAGGSLRLSCAASAFIFSGNAMGWNRQAPGKERELVAAISGRGGRTYYADSVKGRFTISRDNAKNTVYLQMNSLKPEDTAVYYCAADNPYLGRKFDYWGQGTQVTVSS	high polyreactivity
QLQLVESGAGLVQAGGSLRLSCAASGSTFTVYGMAWYRQAPGKERELVAAITYSGGSTYYADSVKGRFTISRDNAKHTVYLTMNSLKPEDTGVYYCAAAGSQYYRRWYDYWGQGTQVTVSS	low polyreactivity
QVQLVESGGGLVQAGGSLRLSCAASGSTFPQNAMGWYRQAPGKERELVAAISRSGGRTYYADSVKGRFTISRDNAKNTVYLQMNILKPEDTAVYYCNAGFYQKYDYWGQGTQVTVSS	high polyreactivity
QVQLVESGGGLVQAGGSLRLSCAASGSIFGENAMGWDRQAPGKERELVAAITSGGSTDYADSVKGRFTISRDNAKNTVYLQMNSLKPEDTAVYYCAASGRVGPGYWYDSWGQGTQVTVSS	low polyreactivity
QVQLVESGGGLVQAGGSLRLSCAASGFTFGYYAMGWYRQAPGKERELVAAITYSGGSTYYADSVKGRFTISRDNAKNTVYLQMNSLNPEDTAVYYCNAYARRYYYGRWYGEFDYWGQGTQVTLSS	low polyreactivity
QVQLVESGGGLVQAGGSLRLSCAASGFTFYSYAMGWYRQAPGKERELVAAITRSGGSTRYADSVKGRFTISRDNAKNTVYLQMNSLKPEDTAVYYCAARFVRNYVYKYNYWGQGTQVTVSS	high polyreactivity
QVQLVESRGGLVQAGGSLRLSCAASGSIFYRYAMGWYRPAPWKERELVAAIRRGGSTNYADSVKGRFTISRDNAKNTVYLQMNSLKPEDTAVYYCAAGRFTYAAQRYEYWGQGTQVTVSS	high polyreactivity
QVQLVESGGGLVQAGGSLRLSCAASGRIFKKYAMGWYRQAPGKERELVATISSGGSTYYADSVKGRFTISRDNSKNTVYLQMNSLKPEDTAVYYCARREYVRRDYFVTTYDYWGQGTQVTVSS	low polyreactivity

Sequence	polyreactivity (PSR sort gate)
QVQLVDSGGGLVQAAGSLRLSCAASGSTFVTYAMGGYRTAPGKERELVAAISSGAGTNYADSVKGRFTISRDNAKNTVYLQMNSLKPEDTAVDYCAADKAVGDSTRYYYWGQGTQVTVSS	low polyreactivity
QVQLVESGGGLFQAGGSLRLSCAASGRTFSRYVMGWYRQAPGKERELVAAISRTGGRKYYADSVKGRFTITRDNAKNTVYLQMNSLKPEDTAVYYCNAGTVLISTYDYWGQGTQVTVSS	high polyreactivity
QVQLVESGGGLVQAGGSLRLSCAASGFIFRDNAMGWSRQAPGKERELVAAISKSGGRTYYADSVKGRFTISRDNAKNTVYLQMNSLKPEETAVYYCAKASRYWSLYYWGQGSQVTVSS	high polyreactivity
QVQLVESGGGLVQAGGSLRLICAASGFNFVTNAMGWYRQAPGKERELVAAISRRGGSTYYADSVKGRFTISRDIAKNTVYLQMNSLKPEDTAVLYCAAVTLSAESGYYWGHGTQVTVSS	high polyreactivity
QVQLVESGGGLVQAGGSLRLSCAASGSTFYRNAMGWYRQAPGKERELVAAITSGGSSTYYADSVKVRFTISRDNAKNTVYLQMNSLKPEDTAVYYCAAEPGIYYYWGQGTQVTVSS	low polyreactivity
QVQLVESGGGLVQAGGSLRLSCAASGIIFRIYAMGWYRQAPGKERELVAAITYIGTSTYYADSVKGRFTISRDNAKNTVYLQMNSLKPEDTAVYFCYFYYVFRSDYWGQGTQVTVSS	low polyreactivity
QVHLVDSGGGLVQAGGSLRLSCAATGFTFWYYAMGWYRQAPWKERELVATITWNGGSTYYADSVKGRFTISRDNAKNTVYIQMNSLQPEDTAVYYCNKSYISSSSWQYYYWGQGTQVTVSS	low polyreactivity
QVQLVESGGGLVQAGGSLRLSCAASGVTFQFYARGWYREAPGKERELVAAISRRGGRTDYADSVTGRFTISRDNAKNTAYLQMNSLKPEDTAVYYCARDPGAFEYWGQGTQVTVSS	high polyreactivity
QVQLVESGGGLVQAGGSLRLSCAASGSIFFGYAMGWYRQAPGKERELVATITSSGGITYYADSVKGRFTISRDNAKNTVYLQMNSLKPEDTAVYYCATYYYYTYDYWGQGTQVTVSS	low polyreactivity
QVQLVESGGGLVKAGGSLRLSCAASGSTFDWYAMGWYRQAPGKERELVAAITWRGDSTNYADSVKGRFTISRDNAKNTVYLQMNSLKPEDTAVYYCATGKTYRDDYWGQGTQVTVSS	high polyreactivity
QVQLVESGGGLVQAGGSLRLSCAASGRIFTTNAMGWYRQAPGKDRELVAAITYSGGTTYYADSVKGRFTISRDNAKNTVYLEMNSLKPEDTAVYYCAADVKFSTPYDYWGQGTQVTVSS	low polyreactivity
QVQLVESGGGLVEAGGSLRLSCAASGSTVWRYAMGWYRQAPGKERELVAAISWNGGSTYYADSVKGRFTISRDNAKNTVYLQMHSLKPEDTAVYYCARGYSWSVGYPRVQDMDYWGQGTQVTVSS	high polyreactivity
QVQLVESGGGLVLAGGSLRLSCAASGYTFTIYAMGWYIQGPGKERELVSAITGRGGRTNYADSVKGRFTISRDNAKNTVYLQMNSLKPEDTAVYYCNAVTKVVYHGPYGYDYWGQGTQVTVSS	high polyreactivity
QVHLVESGGGLVHAGGSLRVSCAASGYTFHRYAMGWYRQAPGKERELVAAITRGGGSTRYADSVKGRFTISRDNAKYTVYLQMNSLKPEDTAVYYCAAERRTPGRTTYYYWGQGTQVSVSS	high polyreactivity
QVQLVESGGGLVQAGGSLRLSCAASGSTVAYYAMGWYRQAPGKERELVAAITIDGRTSYADSVKGRFTISRDNAKNTVYLQMNSLKREDTAVYYCARGYFPYGYPWRWGYDRFDYWGQGTQVTVSS	low polyreactivity
QVQLVETGGGLVQAGGSLRLSCAASGYTLPANGKGWYRQAPGKDRELVAAISFIAGSTYYADSVNGRFTISRDNAKNTVYLQMNSLKPEDTAGYYCATQFPRSTIYDYWGQGTQVTVSS	low polyreactivity
QVQLVESGGGLVQAGGSLRLSCAASGLIFIFNTMGWYRQAPGKERELVAAISWSGTSTYYADSVKGRFTISRDNAKNTVYLQMHSLKPEDTAVYYCAARGYYYKYSTARRNYWGQGTQVTVSS	high polyreactivity
QVQLVESGGGLVQAGGSLRLSCAASGRIFDAYAMGWYRQAPGKERELLAAITQSGGSTFYADSVKGRFTISRDNAKNTVYLQMNSLKPEDTAVYYCAKDKFWFRVDGHYRMDYWGQGTQVTVSS	low polyreactivity
QVQLVESGGGLVQAGGSLRLSCAASGFTFTRYAMGWYRQAPGKERELVAAMTTNSGSRTYYADSVKGRFTISRDNAKNTVYGQMNSLKPEDTAVYYCAADGPVVRGYYWGQGTQVTVSS	high polyreactivity
QVQLVESRGRLVQAGGSLRLSCAASGSIFVGNAMGWYRQAPGKERELVAAISSGGSTYYADSVKGRFTISRDNAKNTVYLQMNSLKPEDTAVYFGAAYYVRRYSSRPKDDYWGQGTQVSVSS	low polyreactivity
QVQLQESGGGLVQAGGSLRLSCAASGNISVTGFMGWYRQAPGKERELVASIGIGGTTYYADSVKGRFSISRDNAKNTVYLQINSLKPVDTAVYYCAARYLYYAYSYWGQGTQVTVRS	low polyreactivity
